In the supplement of paper PMC10567573 one finds protein stability index data, which are given here for 72 sequences.

This series in a line: protein stability index of a GFP-peptide fusion (GPS, HEK-293T) (PSI 1-6); higher = more stable.
Where [1] appears, read: treatment: DMSO, c terminus: a fixed tail appended.
Where [2] appears, read: treatment: MLN4924 1 uM, 8 h, c terminus: a fixed tail appended.
Setting [3] is: treatment: DMSO, c terminus: native.
The mark [4] stands for this setting: treatment: MLN4924 1 uM, 8 h, c terminus: native.

± gives the standard deviation.
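Further: 24-mer peptide tiles fused after GFP, lentivirally expressed, FACS-sorted into six equal bins by GFP/DsRed ratio, decoded by Illumina sequencing, PSI is the read-weighted mean bin number.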

Regarding AACLLQLKGVKQACCEFLESQLDP [KLHL12], the protein stability index under setting [1] is 2.97 ± 0.45 and the protein stability index under setting [2] worked out at 2.88 ± 0.33.
The like results for AADRHINFCKEQAARISNKGKFST [ZC2HC1A] were, in that order, 2.57 ± 0.28 and 2.85 ± 0.14.
As to AAEVGTGQYATTKGISQTNLITTV [EPB41L3], the protein stability index is, setting by setting: under setting [1], 3.54 ± 0.13; under setting [2], 3.5 ± 0.41.
For AAFVRAQADLLAHLVPEPDRLEEQ [DNAAF3], in that order: 4.05 ± 0.13 and 4.12 ± 0.29.
For AAGIGKLSTADGKAFADPEVLRRL [ANKRD17], the protein stability index runs as follows: under setting [1], 4.2 ± 0.15; under setting [2], 4.19 ± 0.41.
AAGVDHVILAVSYMSQVLEKEMKA [GMPPB] had a protein stability index under setting [1] of 2.25 ± 0.62 and a protein stability index under setting [2] of 2.44 ± 0.23.
As for AALCLEVTLKTAVDGPDLEMLTGQ [FKBP8], the protein stability index worked out at 2.47 ± 0.38 under setting [1] and 2.49 ± 0.091 under setting [2].
In the case of ACGGLDNKCSVYPLTFDKNENMAA [GNB5], the protein stability index is, setting by setting: under setting [1], 3.69 ± 0.093; under setting [2], 3.43 ± 0.41.
Consider ACTRSLLGDPPPLLTLPRPPLSGA [HDAC6], for which the protein stability index runs as follows: under setting [1], 3.44 ± 0.37; under setting [2], 3.58 ± 0.26.
In the case of ADQTVLTEDEKKELENLAAMDLEL [CHGB], the protein stability index under setting [1] was 5.6 ± 0.28 and the protein stability index under setting [2] came out at 5.61 ± 0.16.
For ADRIIEVDMECQTDAFLDRPPTPL [RSPH3], the protein stability index by setting is: under setting [1], 4.3 ± 0.29; under setting [2], 4.25 ± 0.28.
As for ADSETPTIQKGSYTFVPWLLSFKR [TNFSF13B], the protein stability index is, setting by setting: under setting [1], 2.52 ± 0.28; under setting [2], 2.58 ± 0.26.
ADWWQEPDAKGDEAEAEPEPELA [P3H4] displayed a protein stability index under setting [3] of 5.67 ± 0.21 and a protein stability index under setting [4] of 5.42 ± 0.31.
Turning to AEEAEILHSACGLSKDHQEVETEG [TOR1AIP2], the protein stability index under setting [1] was 5.45 ± 0.33 and the protein stability index under setting [2] is 5.72 ± 0.24.
For the sequence AEKIEYNESMKAYHNSPAYLAYIN [SMARCE1], the protein stability index came to 3.31 ± 0.5 under setting [1] and 3.46 ± 0.31 under setting [2].
With AEMLGSVVGNWQYFFPVIFSKASD [MAGEA6], the protein stability index by setting is: under setting [1], 2.37 ± 0.31; under setting [2], 2.31 ± 0.31.
The like results for AEMLRFGDRMFYRDWWNSTSFSNY [SOAT2] were, in that order, 2.28 ± 0.52 and 2.02 ± 0.041.
For AFEESKIDEHHFVAVALRKPDGSR [AASDHPPT], in that order: 4.01 ± 0.52 and 4.2 ± 0.53.
As for AFFASHQCSNRIGSMKIKSSWDID [FBXO34], the protein stability index worked out at 2.46 ± 0.15 under setting [1] and 2.42 ± 0.17 under setting [2].
The like results for AFGNPKFALQGLPLNCAPCPRRSE [IRX6] were, in that order, 4.202 ± 0.038 and 4.08 ± 0.13.
Turning to AFNFLLVWYYCTLTIRESILINNG [TMEM120A], the protein stability index came out at 2.87 ± 0.055 under setting [1] and 3.15 ± 0.51 under setting [2].
For AFTMEQVRTLEGVFQHHQYLSPLE [VENTX], in that order: 2.83 ± 0.16 and 2.28 ± 0.23.
Take AGAGGSGSRISVSRSTSFRGGMGS [KRT18]: the protein stability index reads like this: under setting [1], 3.88 ± 0.21; under setting [2], 3.79 ± 0.28.
Take AGKEAMTSDGYTALHLAARNGHLA [RIPK4]: the protein stability index was 3.43 ± 0.69 under setting [1] and 3.85 ± 0.36 under setting [2].
Take AGLCMDSPSPMDPHMAEQTFEQAI [CDC25B]: the protein stability index reads like this: under setting [1], 4.5 ± 0.47; under setting [2], 4.6 ± 0.15.
With AGSHQYPGRGVYLLKFDNSYSLWR [ACBD3], the protein stability index by setting is: under setting [1], 2.43 ± 0.25; under setting [2], 2.22 ± 0.29.
In turn, AGYRLGPAQPGADSSFPPALAEGY [TBX6] yielded a protein stability index under setting [1] of 3.45 ± 0.38 and a protein stability index under setting [2] of 3.62 ± 0.23.
As for AHLAAEVEGKCLQSGFEMLKDVKS [TRIM39], the protein stability index by setting is: under setting [1], 4.17 ± 0.22; under setting [2], 4.62 ± 0.28.
AIDLNKKGKDNKHPMYRRLVHSAV [ZMYND11]: the protein stability index runs as follows: under setting [1], 2.46 ± 0.41; under setting [2], 2.92 ± 0.38.
AIPTKKSLPSPSSSGHQNRRFSSE [FBF1] showed a protein stability index under setting [1] of 4.82 ± 0.27 and a protein stability index under setting [2] of 4.9 ± 0.15.
In the case of AISSPTVSRLTDTTKFTGSHKERF [TPPP], the protein stability index by setting is: under setting [1], 4.17 ± 0.26; under setting [2], 4.29 ± 0.12.
The like results for AKDEDQWTALHFAAQNGDESSTRL [RIPK4] were, in that order, 4.54 ± 0.95 and 5.086 ± 0.023.
For AKGASLFTCDLQHTETGEEVLRMC [VPS39], in that order: 3.69 ± 0.055 and 3.73 ± 0.33.
As to AKLALYPCASLLAFASTCLLSRFS [TMEM175], the protein stability index runs as follows: under setting [1], 2.45 ± 0.49; under setting [2], 2.52 ± 0.52.
As to AKSVLKERGLKKIRLGIEGYPTYK [BTBD10], the protein stability index was 2.79 ± 0.23 under setting [1] and 2.8 ± 0.44 under setting [2].
As for ALLITLIVVATLPIPVVFVLRHFH [SLC6A17], the protein stability index is 2.73 ± 0.52 under setting [1] and 2.33 ± 0.45 under setting [2].
The like results for ANGSEIHKHVHFSSSFTSIASEWF [SLC22A15] were, in that order, 2.44 ± 0.32 and 2.39 ± 0.36.
For APDKTSTVLTRHSQPATPTPLQSR [PDLIM7], in that order: 4.68 ± 0.17 and 4.82 ± 0.23.
The like results for APHQQPPAPPSDALLDLHFPSDHL [TFE3] were, in that order, 4.65 ± 0.087 and 4.77 ± 0.057.
For the sequence APVAEAWIPQAGPPELNYGATGEC [ZNF449], the protein stability index runs as follows: under setting [1], 4.78 ± 0.12; under setting [2], 4.88 ± 0.33.
AQRVRAAMFPETLDEGMQIPSTQF [CTNNB1] returned a protein stability index under setting [1] of 3.62 ± 0.23 and a protein stability index under setting [2] of 3.65 ± 0.16.
Consider AQVRKLELERAQHELLLGSLQQQH [FBF1], for which the protein stability index is 3.62 ± 0.18 under setting [1] and 3.71 ± 0.17 under setting [2].
Consider ARFGSGPCKTRDDEPVCGRPLGIR [APMAP], for which the protein stability index reads like this: under setting [1], 3.75 ± 0.28; under setting [2], 3.87 ± 0.35.
In the case of ARLTYSIVGNQVQGAPASSFVYVN [PCDHGC5], the protein stability index is, setting by setting: under setting [1], 2.38 ± 0.39; under setting [2], 2.19 ± 0.26.
ARLVFVPLLLLCNIKPRRYLTVVF [SLC29A1]: the protein stability index runs as follows: under setting [1], 2.92 ± 0.51; under setting [2], 2.91 ± 0.87.
On to ARMLREYQELMSLKLALDMEIATY [KRT71], for which the protein stability index by setting is: under setting [1], 2.19 ± 0.62; under setting [2], 2.44 ± 0.21.
As for ARTQMILLRRSVEGASSDNGCEVK [PHTF1], the protein stability index runs as follows: under setting [1], 3.68 ± 0.24; under setting [2], 3.98 ± 0.2.
For the sequence ASIHWDWKIALLFVAFALCMFCLY [SLC35F2], the protein stability index by setting is: under setting [1], 2.17 ± 0.36; under setting [2], 2.26 ± 0.24.
In turn, ASPMSADRVVAFMDHIRIFQEQVE [NR2F2] gave a protein stability index under setting [1] of 2.8 ± 0.44 and a protein stability index under setting [2] of 3.1 ± 0.29.
In the case of ASTVTEIVKQQDPLVYKAIQQGIN [ACSBG2], the protein stability index under setting [1] was 3.49 ± 0.3 and the protein stability index under setting [2] amounted to 3.96 ± 0.35.
For ATIENNRVILEIDNARLAVDDFRL [KRT13], the protein stability index reads like this: under setting [1], 2.15 ± 0.16; under setting [2], 2.31 ± 0.35.
Take ATSLFVELDEEEVKAATTEPTEVE [BCL2L13]: the protein stability index is, setting by setting: under setting [1], 5.48 ± 0.4; under setting [2], 5.62 ± 0.12.
The like results for ATTIDNSRVILEIDNARLAADDFR [KRT15] were, in that order, 3.7 ± 0.31 and 3.74 ± 0.3.
The like results for AVAVDVAVPKRLLEIVGREGVSLT [HAGHL] were, in that order, 2.84 ± 0.23 and 2.84 ± 0.19.
With AVEISDHPGEHEVGEPEFHYIAGA [CPXM2], the protein stability index reads like this: under setting [1], 4.82 ± 0.57; under setting [2], 5.17 ± 0.32.
AVGYQPEYSKFCRMSYQDPAQLSC [NFE2L1]: the protein stability index is, setting by setting: under setting [1], 2.63 ± 0.41; under setting [2], 2.2 ± 0.44.
Take AVLASCSQYFRSLFSSHPPLGGGV [KLHL14]: the protein stability index by setting is: under setting [1], 2.4 ± 0.37; under setting [2], 2.22 ± 0.22.
For the sequence AVMEHAESKMYATSPYSDPVVSMD [PTPRD], the protein stability index is, setting by setting: under setting [1], 4.3 ± 0.36; under setting [2], 4.24 ± 0.53.
As for CCEVETIRRAYPDANLLNDRVLRA [CCND1], the protein stability index by setting is: under setting [1], 2.86 ± 0.42; under setting [2], 2.95 ± 0.23.
For the sequence CFSVSMLAGPNDRSDVEKGGKIIM [UFD1], the protein stability index is, setting by setting: under setting [1], 2.92 ± 0.48; under setting [2], 3.2 ± 0.52.
CILVEMHTGEPLFSGSNEVDQMNR [DYRK1B]: the protein stability index reads like this: under setting [1], 2.58 ± 0.07; under setting [2], 2.58 ± 0.22.
The like results for CKIRIQRQLEIMGKEVSGDQIEDM [STX11] were, in that order, 4.01 ± 0.2 and 3.94 ± 0.12.
On to CKLILSLEPDEDPLCMLLLIDHLA [TCF25], for which the protein stability index reads like this: under setting [1], 2.82 ± 0.53; under setting [2], 2.95 ± 0.79.
In the case of CKVDCEANLTPNVGGYFVDKFVAT [P3H4], the protein stability index was 2.84 ± 0.23 under setting [1] and 2.55 ± 0.29 under setting [2].
On to CLRILMGELSNHHDHHDEFCLMP [BEX3], for which the protein stability index is, setting by setting: under setting [3], 2.58 ± 0.69; under setting [4], 2.27 ± 0.15.
As to CLRRCKRTLPAFQVPYPPRQLLRD [P3H4], the protein stability index reads like this: under setting [1], 2.16 ± 0.24; under setting [2], 2.27 ± 0.24.
On to CLVCQASFCELHLKPHLEGAAFRD [TRIM29], for which the protein stability index is, setting by setting: under setting [1], 3.68 ± 0.32; under setting [2], 3.67 ± 0.43.
In the case of CMVCKKKIGNSAFARYPNGVVVHY [VPS39], the protein stability index by setting is: under setting [1], 2.37 ± 0.17; under setting [2], 2.51 ± 0.41.
The like results for CPQCGKCFARKSQLTGHQRIHSGE [ZNF449] were, in that order, 5.1 ± 0.3 and 5.16 ± 0.087.
Turning to CRLDYRRPENRSFYLALYKQMSFL [TCF25], the protein stability index came to 2.33 ± 0.6 under setting [1] and 2.28 ± 0.66 under setting [2].
As to CRYLNFTKGEEISVYVKLAGERED [MIA2], the protein stability index was found to be 2.52 ± 0.26 under setting [1] and 2.77 ± 0.22 under setting [2].
Turning to CSLDKRVILIFHCEFSSERGPRMC [CDC25B], the protein stability index by setting is: under setting [1], 2.28 ± 0.63; under setting [2], 2.54 ± 0.83.
